From patent publication US20080119428A1 (ONCOTHERAPY SCIENCE, published 2008) come the findings set out here.

The assay addresses T1, EPRS (glutamyl-prolyl tRNA synthetase) (UniProt P07814 1-1512).
T1 construct: Endogenous protein in LC319 cell lysate, identified by MALDI-TOF mass spectrometry as a 180-kDa band; also called 180-kDa band
As to the kind of experiment: tandem immunoprecipitation (anti-FLAG M2, then anti-HA) from transfected LC319 lysate, silver-stained SDS-PAGE, MALDI-TOF MS. The procedure:
Cell extracts from lung-cancer cell line LC319 transfected with the plasmids expressing N-terminal FLAG-tagged and C-terminal HA-tagged-pCAGGS-IMS-E21 (URLC8) vector or mock vector (control) were pre-cleared by incubation at 4° C. for 1 hour with 100 μL of protein G-agarose beads in a final volume of 2 ml of IP-buffer (0.5% NP-40, 50 mM Tris-HCl, 150 mM NaCl) in the presence of proteinase inhibitor. After centrifugation at 1000 rpm for 5 min at 4° C., the supernatant was incubated at 4° C. with anti-Flag M2 agarose for 2 hours. The beads were then collected by centrifugation at 5000 rpm for 2 min and washed six times with 1 ml of each immunoprecipitation buffer. Then, the washed beads were eluted by Flag-peptide (Sigma-Aldrich Co., St. Louis, Mo.). The elution was incubated at 4° C. with anti-HA agarose for 2 hours. The washed beads were resuspended in 50 μL of Laemmli sample buffer and boiled for 5 min, and the proteins were separated by 5-10% SDS PAGE gels (BIO RAD). After electrophoresis, the gels were stained with silver. Protein bands specifically found in IMS-E21 (URLC8)- transfected extracts were excised and served for matrix-assisted laser desorption/ionization-time of flight mass spectrometry (MALDI-TOF-MS) analysis (AXIMA-CFR plus, SHIMADZU BIOTECH, Kyoto, Japan). […]

T1 sequence (P07814 whole entry): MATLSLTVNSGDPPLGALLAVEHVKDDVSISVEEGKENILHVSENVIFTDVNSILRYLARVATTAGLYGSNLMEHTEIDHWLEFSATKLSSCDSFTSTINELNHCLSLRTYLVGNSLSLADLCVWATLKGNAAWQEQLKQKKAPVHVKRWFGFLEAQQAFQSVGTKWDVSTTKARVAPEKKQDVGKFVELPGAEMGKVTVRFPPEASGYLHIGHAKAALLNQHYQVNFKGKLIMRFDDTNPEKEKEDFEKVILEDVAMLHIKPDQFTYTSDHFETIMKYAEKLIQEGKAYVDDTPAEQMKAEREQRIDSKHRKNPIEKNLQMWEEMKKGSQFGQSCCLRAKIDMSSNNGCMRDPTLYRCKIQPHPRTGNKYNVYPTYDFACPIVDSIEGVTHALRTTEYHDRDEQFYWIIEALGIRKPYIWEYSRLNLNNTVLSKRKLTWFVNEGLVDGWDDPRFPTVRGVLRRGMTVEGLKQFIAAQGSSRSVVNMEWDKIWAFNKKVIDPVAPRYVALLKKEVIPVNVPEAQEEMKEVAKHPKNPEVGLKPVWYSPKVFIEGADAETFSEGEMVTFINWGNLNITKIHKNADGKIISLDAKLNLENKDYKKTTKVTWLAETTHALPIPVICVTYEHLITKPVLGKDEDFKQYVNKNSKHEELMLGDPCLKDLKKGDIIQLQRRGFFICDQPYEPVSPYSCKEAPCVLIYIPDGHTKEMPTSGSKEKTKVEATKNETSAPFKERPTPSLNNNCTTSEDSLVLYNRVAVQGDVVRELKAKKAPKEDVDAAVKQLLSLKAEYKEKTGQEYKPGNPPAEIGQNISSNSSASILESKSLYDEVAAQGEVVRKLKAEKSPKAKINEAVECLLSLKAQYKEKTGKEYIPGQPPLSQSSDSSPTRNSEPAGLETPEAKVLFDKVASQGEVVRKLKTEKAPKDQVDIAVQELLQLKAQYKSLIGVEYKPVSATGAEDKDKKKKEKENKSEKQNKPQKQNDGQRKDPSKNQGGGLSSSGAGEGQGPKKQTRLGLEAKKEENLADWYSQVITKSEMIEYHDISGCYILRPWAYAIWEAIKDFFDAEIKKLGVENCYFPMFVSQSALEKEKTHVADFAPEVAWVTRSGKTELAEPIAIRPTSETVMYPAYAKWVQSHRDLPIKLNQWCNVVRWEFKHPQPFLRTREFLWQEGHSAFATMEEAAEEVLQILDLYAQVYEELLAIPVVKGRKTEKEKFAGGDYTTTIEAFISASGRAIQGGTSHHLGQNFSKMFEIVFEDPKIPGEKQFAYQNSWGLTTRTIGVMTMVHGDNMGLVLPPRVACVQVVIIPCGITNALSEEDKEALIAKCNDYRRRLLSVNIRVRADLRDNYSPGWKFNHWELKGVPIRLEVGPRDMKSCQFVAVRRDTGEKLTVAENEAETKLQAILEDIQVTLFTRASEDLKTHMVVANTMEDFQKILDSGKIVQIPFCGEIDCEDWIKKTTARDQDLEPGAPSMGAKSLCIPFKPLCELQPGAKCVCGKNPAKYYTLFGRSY

B1: N-terminal FLAG-tagged and C-terminal HA-tagged IMS-E21 (URLC8) (enzyme)
chain: MILNSLSLCYHNKLILAPMVRVGTLPMRLLALDYGADIVYCEELIDLKMIQCKRVVNEVLSTVDFVAPDDRVVFRTCEREQNRVVFQMGTSDAERALAVARLVENDVAGIDVNMGCPKQYSTKGGMGAALLSDPDKIEKILSTLVKGTRRPVTCKIRILPSLEDTLSLVKRIERTGIAAIAVHGRKREERPQHPVSCEVIKAIADTLSIPVIANGGSHDHIQQYSDIEDFRQATAASSVMVARAAMWNPSIFLKEGLRPLEEVMQKYIRYAVQYDNHYTNTKYCLCQMLREQLESPQGRLLHAAQSSREICEAFGLGAFYEETTQELDAQQARLSAKTSEQTGEPAEDTSGVIKMAVKFDRRAYPAQITPKMCLLEWCRREKLAQPVYETVQRPLDRLFSSIVTVAEQKYQSTLWDKSKKLAEQAAAIVCLRSQGLPEGRLGEESPSLHKRKREAPDQDPGGPRAQELAQPGDLCKKPFVALGSGEESPLEGW
notes: Expressed from a pCAGGS vector in transfected LC319 cells; also called FLAG-tagged and HA-tagged-pCAGGS-IMS-E21; not shown: N-terminal FLAG tag; C-terminal HA tag
Turning to B1, the binding result is recorded as “binds”.
